According to US20200347139A1 (INHIBRX BIOSCIENCES, published 2020):

Key:
mFc-CLEC12a-ECD [1] = target: T1, mFc-CLEC12a-ECD (human); assay: BLI, mFc-CLEC12a-ECD on anti-mFc sensors first loaded with 100 nM hzMB11v13, then 100 nM second sdAb
T1 construct: It was immobilized on anti-mFc capture sensors for BLI; also called CLEC12a antigen
T1 chain: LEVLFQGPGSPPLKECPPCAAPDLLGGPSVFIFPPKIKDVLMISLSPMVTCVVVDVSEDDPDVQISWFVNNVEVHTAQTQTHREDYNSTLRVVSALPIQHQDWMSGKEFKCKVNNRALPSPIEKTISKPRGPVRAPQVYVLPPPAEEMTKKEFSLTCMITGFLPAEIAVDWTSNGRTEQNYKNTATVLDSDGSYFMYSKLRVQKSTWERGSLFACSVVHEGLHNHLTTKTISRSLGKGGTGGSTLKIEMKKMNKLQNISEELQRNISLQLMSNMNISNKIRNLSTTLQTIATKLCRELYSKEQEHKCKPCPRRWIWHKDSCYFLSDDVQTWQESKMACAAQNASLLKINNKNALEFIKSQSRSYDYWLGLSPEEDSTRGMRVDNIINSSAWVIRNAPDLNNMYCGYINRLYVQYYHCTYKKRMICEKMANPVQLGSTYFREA
Experimental: (§1) The epitopes of single domain antibodies (sdAbs) that comprise VHH domains that bind CLEC12a were compared using Bio-Layer Interferometry. 7 μg/mL of mFc-CLEC12a-ECD (SEQ ID NO: 87) was immobilized on anti-mFc coated capture sensors. 100 nM of one sdAb was then loaded onto the CLEC12a antigen and allowed to come to equilibrium. The sensors were then transferred into 100 nM of a second sdAb.

[2] = target: T2, human CLEC12a expressed on transiently transfected HEK 293 cells (human, UniProt Q5QGZ9 1-265); assay: flow cytometry on HEK 293 cells transfected with human CLEC12a; apparent Kd, one-site fit
T2 construct: also called CLL-1; CLL1
T2 sequence: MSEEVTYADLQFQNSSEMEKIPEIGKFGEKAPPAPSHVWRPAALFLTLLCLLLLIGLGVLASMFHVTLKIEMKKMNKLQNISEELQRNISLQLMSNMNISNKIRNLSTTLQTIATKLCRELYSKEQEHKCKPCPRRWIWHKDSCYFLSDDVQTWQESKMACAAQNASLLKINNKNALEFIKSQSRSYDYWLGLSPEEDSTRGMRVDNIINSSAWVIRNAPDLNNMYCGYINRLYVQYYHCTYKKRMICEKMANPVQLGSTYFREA
Experimental: (§2) Binding of sdAbs to human CLEC12a was assessed by flow cytometry. […] HEK 293 cells were transiently transfected with a plasmid encoding CLEC12a (UniProt Accession No. Q5QGZ9.3; SEQ ID NO: 1) and used as the positive cell line, and untransfected HEK 293 cells were used as CLEC12a-negative cells. Each cell type was plated at 30,000 cells/well in FACS buffer (PBS 1% BSA, 0.1% NaN₃ pH 7.4) on a 96-well round-bottom plate. The sdAbs were diluted in FACS buffer in a 3-fold, 11 point serial dilution. The sdAb dilutions were added to the plated cells, and assay plates were incubated for 30 minutes at 4° C. After washing twice in 150 μL of FACS buffer, cells in each well were resuspended in 100 μL of 1:2000 Alexa Fluor 647-conjugated Anti-Human IgG secondary diluted in FACS buffer and incubated at 4° C. for 30 minutes. The cells were washed twice more, then bound antibody was detected by flow cytometry.
(§3) Flow cytometric analysis was performed on an Intellicyte iQue Plus and fluorescence was plotted as median fluorescence intensity. The apparent affinity (Kd, nM) was determined using one site binding non-linear regression in PRISM graph software.

[3] = target: T2, human CLEC12a expressed on transiently …; assay: flow cytometry on HEK 293 cells transiently transfected with human CLEC12a, Alexa Fluor 647 anti-human IgG secondary, median fluorescence
Experimental: as §2, §3

mFc-CLEC12a-ECD [4] = target: T1, mFc-CLEC12a-ECD; assay: BLI epitope binning; mFc-CLEC12a-ECD on anti-mFc sensors, 100 nM sdAb
Experimental: as §1

| Binder | binding result (mFc-CLEC12a-ECD [1]) | Kd [2] [nM] | EC50 (read off the curve) [3] [nM] | binding result (mFc-CLEC12a-ECD [4]) |
| --- | --- | --- | --- | --- |
| hzME06v16 sdAb (VHH hzME06v16 fused to human IgG1 xELL Fc) (Fc fusion, Humanized version of ME06; No linker is stated; also called hzME06v16-IgG1) EVQLVESGGGEVQPGGSLRLSCAASGFTFDDYAIGWFRQAPGKEREGVSTISSSDGSTYYAESVKGRFTISRDNAKNTVYLQMSSLRAEDTAVYYCALREGLPLLLDTLWRQPVEYDYWGQGTQVTVDKTHTCPPCPAPGGPSVFLFPPKPKDTLMISRTPEVTCVVVDVSHEDPEVKFNWYVDGVEVHNAKTKPREEQYNSTYRVVSVLTVLHQDWLNGKEYKCKVSNKALPAPIEKTISKAKGQPREPQVYTLPPSRDELTKNQVSLTCLVKGFYPSDIAVEWESNGQPENNYKTTPPVLDSDGSFFLYSKLTVDKSRWQQGNVFSCSVMHEALHNHYTQKSLSLSPGK | binds | 0.06 | – | – |
| ME02 sdAb (VHH ME02 fused to human IgG1 xELL Fc) (Fc fusion, Camelid parental VHH; No linker is stated; also called ME02-IgG1) QVQLQQSGGGLVQVGGSQRLSCAASGRTFEYDDMVWFRQAPGKEREEVAGISWSGGSIYYADSVKGRFSISRDNAKNTVYLEMNRLKPEDTAVYYCNVGSYWGQGTQVTVDKTHTCPPCPAPGGPSVFLFPPKPKDTLMISRTPEVTCVVVDVSHEDPEVKFNWYVDGVEVHNAKTKPREEQYNSTYRVVSVLTVLHQDWLNGKEYKCKVSNKALPAPIEKTISKAKGQPREPQVYTLPPSRDELTKNQVSLTCLVKGFYPSDIAVEWESNGQPENNYKTTPPVLDSDGSFFLYSKLTVDKSRWQQGNVFSCSVMHEALHNHYTQKSLSLSPGK | – | 1.2 | ~1 | – |
| hzME02v4 sdAb (VHH hzME02v4 fused to human IgG1 xELL Fc) (Fc fusion, Humanized version of ME02; No linker is stated; also called hzME02v4-IgG1) EVQLVESGGGEVQPGGSLRLSCAASGRTFEYDDMVWFRQAPGKEREEVAGISWSGGSIYYAESVKGRFSISRDNAKNTVYLEMNRLKPEDTAVYYCNVGSYWGQGTLVTVDKTHTCPPCPAPGGPSVFLFPPKPKDTLMISRTPEVTCVVVDVSHEDPEVKFNWYVDGVEVHNAKTKPREEQYNSTYRVVSVLTVLHQDWLNGKEYKCKVSNKALPAPIEKTISKAKGQPREPQVYTLPPSRDELTKNQVSLTCLVKGFYPSDIAVEWESNGQPENNYKTTPPVLDSDGSFFLYSKLTVDKSRWQQGNVFSCSVMHEALHNHYTQKSLSLSPGK | binds | 0.87 | ~0.8 | – |
| MB11 sdAb (VHH MB11 fused to human IgG1 xELL Fc) (Fc fusion, Camelid parental VHH; No linker between VHH and Fc is stated; Fc dimers are described only in general terms; also called MB11-IgG1) QVQLQQSGGGLVQPGGSLRLSCVASGFLFSIYDMNWYRQAPGKEREWIAGITNNGYSTAYTDSVQGRFTISRDNAKNTIYLQMTSLKPEDTAVYYCHADLTKCYDGEYAWGQGTQVTVDKTHTCPPCPAPGGPSVFLFPPKPKDTLMISRTPEVTCVVVDVSHEDPEVKFNWYVDGVEVHNAKTKPREEQYNSTYRVVSVLTVLHQDWLNGKEYKCKVSNKALPAPIEKTISKAKGQPREPQVYTLPPSRDELTKNQVSLTCLVKGFYPSDIAVEWESNGQPENNYKTTPPVLDSDGSFFLYSKLTVDKSRWQQGNVFSCSVMHEALHNHYTQKSLSLSPGK | – | 58.6 | ~50 | – |
| MC02 sdAb (VHH MC02 fused to human IgG1 xELL Fc) (Fc fusion, Camelid parental VHH; No linker is stated; also called MC02-IgG1) QVQLVQSGGGLAQPGGSLRLSCTASGFTFRINDMGWYRQAPGKECEMVAGISNNGFSTAYADSVKGRFTISRDNAKNTVSLQMDSLKSEDTAVYYCHRTDDGAAHACSRGQGTQVTVDKTHTCPPCPAPGGPSVFLFPPKPKDTLMISRTPEVTCVVVDVSHEDPEVKFNWYVDGVEVHNAKTKPREEQYNSTYRVVSVLTVLHQDWLNGKEYKCKVSNKALPAPIEKTISKAKGQPREPQVYTLPPSRDELTKNQVSLTCLVKGFYPSDIAVEWESNGQPENNYKTTPPVLDSDGSFFLYSKLTVDKSRWQQGNVFSCSVMHEALHNHYTQKSLSLSPGK | – | 0.37 | – | – |
| hzMC02v6 sdAb (VHH hzMC02v6 fused to human IgG1 xELL Fc) (Fc fusion, Humanized version of MC02; No linker is stated; also called hzMC02v6-IgG1) EVQLVESGGGEVQPGGSLRLSCAASGFTFRINDMGWYRQAPGKECEMVAGISNNGFSTAYAESVKGRFTISRDNAKNTVYLQMSSLRAEDTAVYYCHRTDEGAAHACSRGQGTLVTVDKTHTCPPCPAPGGPSVFLFPPKPKDTLMISRTPEVTCVVVDVSHEDPEVKFNWYVDGVEVHNAKTKPREEQYNSTYRVVSVLTVLHQDWLNGKEYKCKVSNKALPAPIEKTISKAKGQPREPQVYTLPPSRDELTKNQVSLTCLVKGFYPSDIAVEWESNGQPENNYKTTPPVLDSDGSFFLYSKLTVDKSRWQQGNVFSCSVMHEALHNHYTQKSLSLSPGK | – | 0.35 | – | binds |
| ME06 sdAb (VHH ME06 fused to human IgG1 xELL Fc) (Fc fusion, Camelid parental VHH; No linker is stated; also called ME06-IgG1) QVQLVQSGGGLVQAGGSLRLSCVASGFTFDDYAIGWFRQAPGKEREGVSCISNSDGSTYYADSVKGRFTISSDNAKNTVYLHVNSLNPEDTAVYYCALREGLPLLLDSLWRQPVEYDYWGQGTQVTVDKTHTCPPCPAPGGPSVFLFPPKPKDTLMISRTPEVTCVVVDVSHEDPEVKFNWYVDGVEVHNAKTKPREEQYNSTYRVVSVLTVLHQDWLNGKEYKCKVSNKALPAPIEKTISKAKGQPREPQVYTLPPSRDELTKNQVSLTCLVKGFYPSDIAVEWESNGQPENNYKTTPPVLDSDGSFFLYSKLTVDKSRWQQGNVFSCSVMHEALHNHYTQKSLSLSPGK | – | 0.05 | – | – |
| MH07 sdAb (VHH MH07 fused to human IgG1 xELL Fc) (Fc fusion, Camelid parental VHH; No linker is stated; also called MH07-IgG1) QVQLVQSGGGLVQPGGSLRLSCVASGLLFSIYDMNWYRQAPGKEREWIAGITNNGYSTAYTDSVQGRFTISRDNAKNTVYLQMNSLKPEDTAVYYCHTDEWGREYWGQGTQVTVDKTHTCPPCPAPGGPSVFLFPPKPKDTLMISRTPEVTCVVVDVSHEDPEVKFNWYVDGVEVHNAKTKPREEQYNSTYRVVSVLTVLHQDWLNGKEYKCKVSNKALPAPIEKTISKAKGQPREPQVYTLPPSRDELTKNQVSLTCLVKGFYPSDIAVEWESNGQPENNYKTTPPVLDSDGSFFLYSKLTVDKSRWQQGNVFSCSVMHEALHNHYTQKSLSLSPGK | – | 0.1 | – | – |
| hzMH07v3 sdAb (VHH hzMH07v3 fused to human IgG1 xELL Fc) (Fc fusion, Humanized version of MH07; No linker is stated; also called hzMH07v3-IgG1; haMH07v3) EVQLVESGGGEVQPGGSLRLSCAASGLLFSIYDMNWYRQAPGKEREWVAGITNNGYSTAYAESVKGRFTISRDNAKNTVYLQMSSLRAEDTAVYYCHTDEWGREYWGQGTLVTVDKTHTCPPCPAPGGPSVFLFPPKPKDTLMISRTPEVTCVVVDVSHEDPEVKFNWYVDGVEVHNAKTKPREEQYNSTYRVVSVLTVLHQDWLNGKEYKCKVSNKALPAPIEKTISKAKGQPREPQVYTLPPSRDELTKNQVSLTCLVKGFYPSDIAVEWESNGQPENNYKTTPPVLDSDGSFFLYSKLTVDKSRWQQGNVFSCSVMHEALHNHYTQKSLSLSPGK | – | 0.28 | – | binds |
| MC06 sdAb (VHH MC06 fused to human IgG1 xELL Fc) (Fc fusion, Camelid parental VHH; No linker is stated; also called MC06-IgG1) QVQLQESGGGLVQPGGSLRLSCAASGFTFSVYDMNWYRQTPGKEREWVAGISNNGFSTAYAGSVKGRFTISRDNAENTVYLQMNSLKSEDTAVYYCNLDVHGRVGAQGDYWGQGTQVTVDKTHTCPPCPAPGGPSVFLFPPKPKDTLMISRTPEVTCVVVDVSHEDPEVKFNWYVDGVEVHNAKTKPREEQYNSTYRVVSVLTVLHQDWLNGKEYKCKVSNKALPAPIEKTISKAKGQPREPQVYTLPPSRDELTKNQVSLTCLVKGFYPSDIAVEWESNGQPENNYKTTPPVLDSDGSFFLYSKLTVDKSRWQQGNVFSCSVMHEALHNHYTQKSLSLSPGK | – | 1.58 | 1 to 2 | – |
| hzMC06v2 sdAb (VHH hzMC06v2 fused to human IgG1 xELL Fc) (Fc fusion, Humanized version of MC06; No linker is stated; also called hzMC06v2-IgG1) EVQLVESGGGEVQPGGSLRLSCAASGFTFSVYDMNWYRQAPGKEREWVSGISNNGFSTAYAESVKGRFTISRDNAKNTLYLQMSSLRAEDTAVYYCNLDVHGRVGAQGDYWGQGTLVTVDKTHTCPPCPAPGGPSVFLFPPKPKDTLMISRTPEVTCVVVDVSHEDPEVKFNWYVDGVEVHNAKTKPREEQYNSTYRVVSVLTVLHQDWLNGKEYKCKVSNKALPAPIEKTISKAKGQPREPQVYTLPPSRDELTKNQVSLTCLVKGFYPSDIAVEWESNGQPENNYKTTPPVLDSDGSFFLYSKLTVDKSRWQQGNVFSCSVMHEALHNHYTQKSLSLSPGK | – | 14 | ~10 | binds |
